According to US20170369589A1 (INBIOMOTION S L, published 2017):
No end group written: not given here.

Key:
[1] = target: T1, c-MAF (Q1): fragment of c-MAF including Aa 19-208 (Homo sapiens (Human), UniProt O75444 19-208); experiment: SPR, Biacore T200, 25 C; antibody captured on Protein A, c-MAF (Q1) as analyte at 6.5 nM; single concentration fit, 1:1 model
T1 construct: Recombinant antigen preparation used in SPR; also called c-MAF fragment
T1 sequence: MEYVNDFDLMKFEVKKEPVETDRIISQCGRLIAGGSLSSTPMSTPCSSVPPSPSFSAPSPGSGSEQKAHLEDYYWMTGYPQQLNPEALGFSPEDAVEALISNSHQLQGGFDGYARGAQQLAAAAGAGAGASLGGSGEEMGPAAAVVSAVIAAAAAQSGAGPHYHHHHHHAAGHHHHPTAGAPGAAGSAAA
Method: Test measurements were conducted to confirm protein A-binding of the antibody INB-1-11-8 and to select appropriate capture levels for the kinetic measurements of the analyte. A capture level of 240 RU was chosen for the measurement with c-MAF (Q1), resulting in an expected Rmax of ca 64 RU for two 19.6 kDa antigens binding per antibody molecule. To generate sufficiently high binding signals for the peptide, a higher capture level of […] was chosen, also resulting in an expected Rmax of ca 30 RU. Serial dilutions of the antigen were injected for 180 s, followed by a 600 s buffer injection for off-rate determination (see FIG. 6). For the c-MAF fragment the molar concentrations used for the serial dilutions were calculated based on the concentrations determined by CFCA. The kinetic measurements were performed twice to confirm the binding behavior.
Based on this preliminary data, an affinity in the nM-range has been roughly estimated for the interaction. The binding is characterized by a very fast association rate and a fast dissociation rate, i.e. the binding is not very tight.

[2] = target: T2, Peptide 1 (epitope 83-EQKAHLEDYYWMTGYPQQ-100 of c-MAF of human origin) conjugated to BSA (human, also: conjugated to BSA); experiment: antigen-specific ELISA: epitope peptide conjugated to BSA on the plate, anti-rabbit secondary antibody conjugated to alkaline phosphatase
T2 construct: also called antigen
T2 peptide: EQKAHLEDYYWMTGYPQQ
Method: An Antigen-specific ELISA was used to test the antibody sensitivity for the antigen. To this end, the epitope, Peptide 1, described above, was conjugated to BSA. This was attached to a the plate surface where the ELISA is performed and washed. The INB-1-11-8 c-MAF specific antibody was then applied so that it could bind to the antigen. Following, the incubation time and wash with TBST, a secondary antibody specific for rabbit antibodies and conjugated to Alkaline Phosphatase was used to score binding of the primary antibody to the antigen. Several dilutions were used to test the titer of the antibody, which is an indication of the affinity of the antibody for its antigen (FIG. 3A).

B1: INB-1-11-8 c-MAF specific monoclonal antibody (rabbit) (antibody, V domains shown)
VH: QSLEESGGRLVTPGTPLTLTCTASGFSLNNYPMTWVRQAPGKGLDYIGVINNSGETAYATWAKRRFTISRTSTTLYLKIASPTIEDTATYFCARGGPVSSDMWGPGTLVIVSS
VL: AQVLTQTASPVSAVVGGTVTINCQSSQSVYRGDWLAWYQQRPGQPPKLLIYGASTLASGVPSRFKGSGSGTHFTLTISDLDCDDAATYYCAGGFSGHIYDFGGGTEVVVKG
notes: Rabbit monoclonal antibody; also called Clone ID11-8; antibody INB-1-11-8
**Q.** What does the source list for B1?
**A.** Kd [1]: 1.1 nM; koff [1]: 0.0056 s⁻¹; kon [1]: 5.3e+06 M⁻¹ s⁻¹; binding result [2]: binds
